Measured values from patent publication US20250188151A1, “C-JUN ANTAGONIST PEPTIDES” (The University of Bath, priority 2022, published 2025).
Bridge positions count the residues as written; N and C are the ends.

Key:
cJun bZIP [1] = target: T1, cJun bZIP (human, UniProt P05412 252-308, limits assumed); test: cell-based or functional assay
T1 chain: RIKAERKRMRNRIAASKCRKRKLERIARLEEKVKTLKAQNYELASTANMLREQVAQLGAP

cJun bZIP [2] = target: T1, cJun bZIP; test: cell-based or functional assay
cJun bZIP [3] = target: T1, cJun bZIP; test: CD thermal denaturation, peptide 5 µM and c-Jun 5 µM
cJun bZIP [4] = target: T1, cJun bZIP; test: ITC (PEAQ-ITC), peptide injected into cJun, one site model

B1: HingeW peptide variant 3 (peptide)
peptide: Ac-LEKEAEELVVEEDVLEEEIEQLEERNYALRKEIEDLQKQLEKL-NH2
notes: Synthetic, NΔ17 CΔ3; also called peptide 3
B1 was tested, and the “fold decrease in antagonism, 2 to 3” value (cJun bZIP [1]) was 2 fold, the “IC50 CD” value (cJun bZIP [2]) was 33.7 µM and the “Tm (° C.) of peptide-c-Jun heterodimer” value (cJun bZIP [3]) was 67.9 ° C.

B2: HingeW peptide variant 2 (peptide)
peptide: Ac-LARENEELEKEAEELVVEEDVLEEEIEQLEERNYALRKEIEDLQKQLEKL-NH2
notes: Synthetic, NΔ10 CΔ3; also called peptide 2
In the case of B2, the “fold decrease in antagonism, 1 to 2” value (cJun bZIP [1]) is reported as 1.2 fold, the “fold more effective antagonism than 10” value (cJun bZIP [1]) is reported as 4 fold and the “IC50 CD” value (cJun bZIP [2]) is reported as 16.6 µM. For the same binder, the “Tm (° C.) of peptide-c-Jun heterodimer” value (cJun bZIP [3]) was 68.5 ° C.

B3: HingeW variant peptide 8 (peptide)
peptide: Ac-LVVEEDVLEEEIEQLEEKNKALKDEIEDLQKQLEKLY-NH2
modifications: lactam 20-24 (inferred); also: table prints a different, shorter sequence for 7/8
notes: See peptide 7; also called cyclised form of 7/8
For B3, the “fold increase in antagonism relative to 5” value (cJun bZIP [1]) was 1.8 fold, the “IC50 CD” value (cJun bZIP [2]) was 73.5 µM and the “Tm (° C.) of peptide-c-Jun heterodimer” value (cJun bZIP [3]) was 67.2 ° C.

B4: HingeW variant peptide 10 (peptide)
peptide: Ac-LVVEEDVLEEEIEQLEERNYALRKEIEDLQKQLEDL-NH2
modifications: lactam (positions not given here); also: one i to i+4 K-to-D lactam, places not given here (K24/D28 or K31/D35)
notes: Synthetic, NΔ24 CΔ3; also called cyclised form of 9/10
For B4, the “fold increase in antagonism relative to 5” value (cJun bZIP [1]) was 1.9 fold, the “IC50 CD” value (cJun bZIP [2]) was 69 µM and the “Tm (° C.) of peptide-c-Jun heterodimer” value (cJun bZIP [3]) was 68.3 ° C.

B5: HingeW variant peptide 29 (peptide)
peptide: Ac-EAEELVVEEDVLEEEIEQLEERNYALRKEIEDLQ-NH2
modifications: lactam 28-32 (inferred)
notes: Synthetic, NΔ20 CΔ9; also called cyclised form of 28/29
For B5, the “fold reduction in antagonism relative to 1” value (cJun bZIP [1]) was 10.4 fold, the “IC50 CD” value (cJun bZIP [2]) was 140 µM and the “Tm (° C.) of peptide-c-Jun heterodimer” value (cJun bZIP [3]) was 57.2 ° C.

For Ac-EAEELVVEEDVLEEEIEQLEERNYALRKEIEDLQKQ-NH2 (Synthetic, NΔ20 CΔ7) [HingeW variant peptide 11], the “fold reduction in antagonism, 4 to 11” value (cJun bZIP [1]) was 1.8 fold, the “IC50 CD” value (cJun bZIP [2]) was 82.1 µM and the “Tm (° C.) of peptide-c-Jun heterodimer” value (cJun bZIP [3]) was 57.1 ° C. For the same binder, the “-TΔS” value (cJun bZIP [4]) was -2.14 kcal/mol, the Kd (cJun bZIP [4]) was 1.1 µM and the “Stoichiometry, n” value (cJun bZIP [4]) was 0.95. It also gave a ΔG (cJun bZIP [4]) of -8.15 kcal/mol and a ΔH (cJun bZIP [4]) of -5.99 kcal/mol.

With Ac-LVVEEDVLEEEIEQLEERNYALRKEIEDLQKQLEKL-NH2 (Synthetic, NΔ24 CΔ3) [Peptide 5] the “fold better antagonism than 6” value (cJun bZIP [1]) was 1.7 fold, the “fold decrease in antagonism, 3 to 5” value (cJun bZIP [1]) was 2.3 fold and the “fold lower antagonism than 1” value (cJun bZIP [1]) was 5.8 fold. The “fold reduction in antagonism, 4 to 5” value (cJun bZIP [1]) was 1.7 fold, the “IC50 CD” value (cJun bZIP [2]) was 78.2 µM and the “Tm (° C.) of peptide-c-Jun heterodimer” value (cJun bZIP [3]) was 62.8 ° C.

With Ac-EAEELVVEEDVLEEEIEQLEERNYALRKEIEDL-NH2 (Synthetic, NΔ20 CΔ10) [HingeW variant peptide 25] the “fold reduction in antagonism compared to 4” value (cJun bZIP [1]) was 26.7 fold, the “fold reduction in antagonism compared to 11” value (cJun bZIP [1]) was 14.8 fold and the “IC50 CD” value (cJun bZIP [2]) was 1210 µM. For the same binder, the “Tm (° C.) of peptide-c-Jun heterodimer” value (cJun bZIP [3]) was 44.8 ° C.
